In article PMC11043418, “Bacillus velezensis iturins inhibit the hemolytic activity of Staphylococcus aureus” (Scientific Reports, 2024):

Target: the molecule itself
Experiment: SDS-PAGE of deoxycholate-induced oligomers

B1: alpha-hemolysin (natural protein)
chain: ADSDINIKTGTTDIGSNTTVKTGDLVTYDKENGMHKKVFYSFIDDKNHNKKLLVIRTKGTIAGQYRVYSEEGANKSGLAWPSAFKVQLQLPDNEVAQISDYYPRNSIDTKEYMSTLTYGFNGNVTGDDTGKIGGLIGANVSIGHTLKYVQPDFKTILESPTDKKVGWKVIFNNMVNQNWGPYDRDSWNPVYGNQLFMKTRNGSMKAADNFLDPNKASSLLSSGFSPDFATVITMDRKASKQQTNIDVIYERVRDDYQLHWTSTNWKGTNTKDKWTDRSSERYKIDWEKEEMTN
notes: also called α-hemolysin; Hla
B1 was tested, and the “stoichiometry N” value was 7.
